# PMC3477023, “Microbial β-glucosidases from cow rumen metagenome enhance the saccharification of lignocellulose in combination with commercial cellulase cocktail” (Biotechnology for Biofuels, 2012)
# B1: SRF2g18 (uncultured bacterium SRF2) (protein)
# chain: MRKSIHQISLVILAVVAMCGYSLRMKAQQLKAENIDEVVKAMTLEEKCHMVLGRGMHFNDEAKFPGTAGSTFSIARLGVPETYCADSQQGLRMNATRAWDHNDYYPTDFVASMTLASTWDREAAFKVGQGIGNEVREFGLDWILSPAMNLIRNPLCGRNHEYYSEDPYLSGTIAAGYVNGVQSEGTAACPKHFVANNQETNRNNNVSQVSQRALREIYLKAFEIMVKESNPWTIMTSYNKLNGPYAVQNHDLLTTIVRNEWGWKGMYVSDWNAGDDAVAAMLAGNDMLQPGQDKQYQAILEAAQSGKLPMEVIDANVKRILEYVVKTHNFKGYKYNNEPDLKAHAKVVREVGADGIVLLKNSGVLPLVGKRVALFGCTSYDWISGGSGFGGTSVGHYTVSLIEGMRSVGYEIYKPLIAAYTQHIAAEEKRLFPNGRPAFSLMPPARADEKQFTADELNAAIEGSDVAIISLGRKSGEAADRSESDFYLKDGEAQLIKAVSDAYHAKGKQVVVLLDICSPIDVASWQNQVDALVCTWQGGQESGFSVADVLSGKVNPSGKLPMTFQIKYGDAYADKNFPANVDDKTLGAMFMWGYDKDNTPKERQLQANIDFTNYEEDIYVGYRYFDSFSKPVAYPFGFGLSYTTFAYENLSVSETDGVFTVKVDVKNTGNKAGRNVVELFVAAPNSKQLNKPEKELRNYAKTSLLKPGQTETVIMLVKTEDLASFNEKASAWKTDAGVYTFMICSSANQIEVQTSAKVKAWTKKVNNVMKPKLKLNLLKR
# notes: gene 2343 bp (780 residues calculated), full ORF from ATG with native signal region in pET-41 Ek/LIC, E. coli BL21(DE3), Ni-NTA, tags removed by enterokinase
# B2: LAB20g4 (uncultured bacterium LAB20) (protein)
# chain: MKKIMLLSATVLALAGCKGDPQLGKDSVDKVLKAMTLEEKVHFVIGTGMAGFGGESAVVGATKNIVPGAAGTTYPIERLGIPSIVLADGPAGLRIDPTREGDENTYYCTHFPIGTLLASTWNQELVESVGKAMGEEVHEYGADVYLAPALNIHRHPLNGRNFEYYSEDPVVAGKTAAAYVRGVQSNDVGTSIKHFAYNNQETNRTGNNAVISPRAQREIYLKGFEITVKESDPWTVMSSYNKINGTYTSQSRDLITTVLRDEWGFKGLVMTDWFGGDNGAEQIAAGNDMLQPGTDLQYQQIMDAIKDGSLSEDELNICVRRCLELVARSPKAKGYAYSNKPDLKAHAAVTRQSALEGMVLLENNGVLPLKDVKNVAVFGCTSFDFIAGGTGSGNVNRAYTVSLLDGLKNAGFNVDESNKEATLKHIADEDAAFKASLTDQLSAFYPTPRPSELVPSAAELAASARANDVAIITFGRNSGEFFDRTSADFSLSAKEKELLAKVTAAFHAKGKKVVVVLNVGGVIETASWKSVPDAILLAWQAGQEGGNSVTDILTGAKSPSGKLPMTFPVNLMDHASSANFPIDSDTGVYFTNRREDVGQKDVDVTKYEEGIYVGYRWFDKQNLPVSYPFGYGLSYTTFEYSAPAVANDGKTVTAKVTVKNTGSVAGKEAVQLYVSAPAGTLDKPVKELKAYGKTKELAPGESQELTLTFPTSELASFDEEASAWKVDAGTYTFQFGASSRDVRCTATAEAAASETPANRVLLMK
# notes: gene 2295 bp (764 residues calculated), full ORF from ATG with native signal region in pET-41 Ek/LIC, E. coli BL21(DE3), Ni-NTA, tags removed by enterokinase
# B3: SRF2g14 (uncultured bacterium SRF2) (protein)
# chain: MKKTLFFAFGMATLMMGCTSADKVTKNTLNQEEVMNRLSLEDKAHFVIGVGMAGFSGDDAVIGATKNLVPGAAGTTYPLDSLGIPAVVLADGPAGLRIDATREGDSATYYCTHFPIGTLLASTWNQKLVEEVGQAIGEEVKEYGADVLLAPALNIMRNPLCGRNFEYYSEDPVVAGKTASAYITGVQKNDVGTSIKHFAANNQETNRMNTDAHISQRALREIYLKGFEIAIKESKPWTVMTSYNYINGVYTSESKDLVQTILRDEWGYEGTVMTDWFGGKDGAKQMWAGNDMLQPGKAEQFDSIVAGVKSGKLDEADLDRNIQRILNLVEKSPRFQGYQYSNKPDLKAHAAVTRQSAAEGMVLMKNNEVLPLKENVKNVALYGCTSYDFIAGGTGSGNVNHAYVVSLLDGLKNGGYNVSDELKSAYEKYIADCKEARKKEIEEMAKKDKQAAMLARFMPGTLPAEKQFSSEELAKQADASDLAVITIGRISGEFLDRKAADFNLNDSEMKLIQQVCEVYHKVGKQVVVLLNIGGVIETASWKELPDAILCAWQAGQEGGNSVVDVLSGKQSPSGKFTMTWPVKFTDAYSSKNFPIDEDPKIDMMNQGQKGNVKNVDYADYEEDIYVGYRYFDSFDVPVSYPFGFGLSYTTFEYSDAKISQKNDIYDVTVTVKNTGKFEGKEVVELYISAPDNKAANKPSKELKAFAKTRSLKPGESETLTLSVTAPELASFDEAASAWVVAEGEYQFLVGASSQDIKATLTANAKSFQIKVNDVMKPQVQMNLLKR
# notes: gene 2361 bp (786 residues calculated), full ORF from ATG with native signal region in pET-41 Ek/LIC, E. coli BL21(DE3), Ni-NTA, tags removed by enterokinase
# B4: LAB25g2 (uncultured bacterium LAB25) (protein)
# chain: MKKLLTICFVATTFGMTMNAQPKLSADNIDEVLKAMTLEEKAKLLVGGANNFFSANAVVGGEATLVAGAAGTTPEIARLGIPATVLTDGPAGVRINPTRRGTDQTFYATAFPIGSCLASTWNTELVGQVGQAIGNETKEYRCDVILGPGMNLHRNPLCGRNFEYYSEDPFLTGKIAAAYINGVQKEDVGVSAKHFAVNSQETDRTSVDERLSQRAAREIYLRGFEIAVRESNPWTIMASYNIINGTHAMGNRDLLTSILRDDWGYKGIVMTDWIGIRQGLTTISEVQAGNDLMEPGQPAQVQEIIDGVKNGKLAIADVDRNVRRMLEYIVKTPSFRKYPASNKPDFTAHAAITRQSANEGIVLLKNNGTLPWKNIKSVALFGENSYDFLSGGTGSGCVHPPYVVDMLEGLKNAGIKSSETLTDIYRKYIAYARVKFQAERHPAKWFQTEAMGQQKYPEISLSPIAVEKEVRGADAAIITIGRQAGEGIDRDIETEFNLIPEERQLIFDVCQAFHAAGKPVVVIINSGSVIETASWSGYPDAILCAWQPGMEGGNSIADLLTGKVNPSGKLTMTWPIAATDHASTKNFPGALDDYSLMQMLGNGQPIPGHAYTNHEEDIYVGYRFFDTFKRDVAYPFGYGLSYTTFEYSKPVVKAKGQTVEVSITVKNSGSVSGKEVAQVYVAAPKGRLEKPAQELKAFAKTRELQPGESQTLTMTIPVRNLASFDEANSQWLTEAGTYTFRIGANSRDIRCTAEAKLAEYTEQTSNALAPKQKLNLLKQ
# notes: gene 2340 bp (779 residues calculated), full ORF from ATG with native signal region in pET-41 Ek/LIC, E. coli BL21(DE3), Ni-NTA, tags removed by enterokinase
# What was measured:
# Experiment in all cases: purified protein
# Conditions in all cases: 40°C, pH 5.6, 50 mM sodium acetate
# purified protein [1] = substrate: O=[N+]([O-])c1ccc(O[C@@H]2O[C@H](CO)[C@@H](O)[C@H](O)[C@H]2O)cc1
# purified protein [2] = substrate: O=[N+]([O-])c1ccc(O[C@@H]2O[C@H](CO)[C@@H](O[C@@H]3O[C@H](CO)[C@@H](O)[C@H](O)[C@H]3O)[C@H](O)[C@H]2O)cc1; assay type: biochemical, uncultured bacterium SRF2
# purified protein [3] = substrate: O=[N+]([O-])c1ccc(O[C@@H]2O[C@H](CO)[C@@H](O[C@@H]3O[C@H](CO)[C@@H](O)[C@H](O)[C@H]3O)[C@H](O)[C@H]2O)cc1; assay type: biochemical, uncultured bacterium LAB20
# purified protein [4] = substrate: O=[N+]([O-])c1ccc(O[C@@H]2O[C@H](CO)[C@@H](O[C@@H]3O[C@H](CO)[C@@H](O)[C@H](O)[C@H]3O)[C@H](O)[C@H]2O)cc1; assay type: biochemical, uncultured bacterium LAB25
Protein,Km (purified protein [1]) [mM],kcat (purified protein [1]) [s⁻¹],kcat/Km (purified protein [1]) [M⁻¹ s⁻¹],Km (purified protein [2]) [mM],kcat (purified protein [2]) [s⁻¹],kcat/Km (purified protein [2]) [M⁻¹ s⁻¹],Km (purified protein [3]) [mM],kcat (purified protein [3]) [s⁻¹],kcat/Km (purified protein [3]) [M⁻¹ s⁻¹],Km (purified protein [4]) [mM],kcat (purified protein [4]) [s⁻¹],kcat/Km (purified protein [4]) [M⁻¹ s⁻¹]
B1,1.73 ± 0.004,0.27,159,0.48 ± 0.072,0.11 ± 0.22,232,,,,,,
B2,0.03 ± 0.003,0.88,29500,,,,1.47 ± 0.13,0.12 ± 0.2,82.7,,,
B3,0.034 ± 0.003,0.37,10800,0.48 ± 0.054,0.19 ± 0.36,416,,,,,,
B4,0.45 ± 0.06,0.41,920,,,,,,,0.39 ± 0.03,0.17 ± 0.36,438
